The values below come from patent publication US20200277377A1 (WUXI BIOLOGICS SHANGHAI, published 2020).

Experiment [1] concerns the target T1, murine CTLA-4 (Example 3 ELISA, construct not stated) (mouse, UniProt P09793 36-161, limits assumed).
T1 construct: also called mouse CTLA-4
The experiment in a line: ELISA; ELISA, murine CTLA-4. As to the method: (§1) The antibodies were tested on CTLA-4-binding ELISA.
(§2) ELISA was used to test binding of anti-human CTLA-4 antibodies to human, murine and cynomolgus monkey CTLA-4 protein. A 96-well plate was coated with human CTLA-4.ECD-6×His (1.0 μg/mL), cynomoguls monkey CTLA-4.ECD-6×His (0.5 μg/mL) or mouse CTLA-4.ECD-6×His (0.5 μg/mL) at 4° C. for 16-20 hours. After 1 hour blocking with 2% BSA in DBPS, testing antibodies, as well as positive and negative control antibodies were added to the plates and incubated at room temperature for 1 hour. The binding of the antibodies to the plates were detected by HRP-conjugated goat anti-human IgG antibody (1:5000 dilution) with 1 hour incubation. The color was developed by dispensing 100 μL of TMB substrate for 8 mins, and then stopped by 100 μL of 2N HCl.

Experiment [2] concerns the target T2, human CTLA-4 (Example 3 ELISAs, construct not stated) (human, UniProt P16410 36-161).
T2 sequence (looked up): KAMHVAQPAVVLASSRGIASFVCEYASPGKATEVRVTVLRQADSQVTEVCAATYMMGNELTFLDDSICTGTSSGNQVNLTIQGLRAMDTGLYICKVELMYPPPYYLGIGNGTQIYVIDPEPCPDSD
The experiment in a line: ELISA, antibody titrated on human CTLA-4, OD450. Here is the method:
as §1, §2

Experiment [3] deals with T2, human CTLA-4 (Example 3 ELISAs, …). The experiment in a line: competition ELISA: coated human CTLA-4, antibody mixed with biotinylated CD86, bound ligand detected with streptavidin-HRP [B) CD86]. As to the method: (§3) Both ELISA and FACS were used as the competition assays. In ELISA based competition assay, human CTLA-4 was coated on the plates, and the antibodies mixed with biotinylated ligands were added into the plate. The bound ligands were detected by HRP conjugated streptavidin.
Plates were coated with human CTLA-4.ECD.hFc (0.5 μg/mL) at 4° C. for 16-20 hours. […] After washing three times with PBS containing 0.05% Tween 20, biotinylated anti-His tag antibody was 1:2000 diluted and added. The plates were incubated at room temperature for 1 hour. The bound ligands were detected by HRP conjugated streptavidin (1:20000).

For experiment [4], the target named is T3, human CTLA-4.ECD-6×His (human, UniProt P16410 36-161).
T3 construct: extracellular domain; also called WBP316.hCTLA-4.ECD-6×His; hCTLA4-His (WT)
T3 sequence: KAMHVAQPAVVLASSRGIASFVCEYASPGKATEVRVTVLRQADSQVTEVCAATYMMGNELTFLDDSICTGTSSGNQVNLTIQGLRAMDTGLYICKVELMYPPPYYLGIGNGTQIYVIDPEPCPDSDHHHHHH
The experiment in a line: SPR, antibody captured on anti-human Fc, CTLA-4 ECD as analyte, 1:1 fit. Here is the method:
The binding kinetics of four antibodies were measured using SPR. The antibodies were captured on immobilized goat anti-human Fc, and then human CTLA-4 ECD at different concentration was injected orderly. The sensorgrams for reference channel and buffer channel were subtracted from the test sensorgrams. The data was used to fit in 1:1 binding analysis.
(§4) Biacore T200, Series S Sensor Chip CMS, Amine Coupling Kit, and 10×HBS-EP were purchased from GE Healthcare. […] In immobilization step, the activation buffer was prepared by mixing 400 mM EDC and 100 mM NHS immediately prior to injection. The CM5 sensor chip was activated for 420 s with the activation buffer. 30 μg/mL of goat anti-human IgG Fcγ antibody in 10 mM NaAc (pH 4.5) was then injected to Fc1-Fc4 channels for 200 s at a flow rate of 5 μL/min. The chip was deactivated by 1 M ethanolamine-HCl (GE). Then the antibodies were captured on the chip. Briefly, 4 μg/mL antibodies in running buffer (HBS-EP+) was injected individually to Fc3 channel for 30 s at a flow rate of 10 μL/min. […] Regeneration buffer (10 mM Glycine pH 1.5) was injected at 10 μL/min for 30 s following every dissociation phase.
(In SPR one partner is held on a chip, and binding of the other changes the refractive index at the surface.)

Experiment [5] concerns the target T4, full length human CTLA-4 on cells (human, UniProt P16410 36-223).
T4 construct: whole, on cells; also called CTLA-4-expressing cell line
T4 sequence (looked up): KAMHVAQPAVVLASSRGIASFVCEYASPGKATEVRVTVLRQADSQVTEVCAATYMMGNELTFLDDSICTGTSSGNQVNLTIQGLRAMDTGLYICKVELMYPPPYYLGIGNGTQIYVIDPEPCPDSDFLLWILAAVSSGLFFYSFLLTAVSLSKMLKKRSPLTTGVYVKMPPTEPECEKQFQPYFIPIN
The experiment is described as follows: FACS on CTLA-4-expressing cell line.

In experiment [6] the target is T5, cynomolgus monkey CTLA-4 ECD-6×His (cynomolgus monkey).
T5 construct: extracellular domain; Bought; also called cynomoguls monkey CTLA-4.ECD-6×His
The experiment in a line: SPR, antibody captured on anti-human Fc, CTLA-4.ECD-6×His as analyte, 1:1 fit. Here is the method: as §4
(§5) The binding kinetics of these antibodies were measured using SPR. The antibodies were captured on immobilized anti-human Fc and CTLA-4-ECD at different concentration was injected orderly. The sensorgrams for reference channel and buffer channel were subtracted from the test sensorgrams. The data was used for 1:1 binding analysis on human, monkey and mouse CTLA-4.ECD-6×His.

Another experiment deals with T6, Murine CTLA-4.ECD-6×His (mouse, UniProt P09793 36-161).
T6 construct: extracellular domain; Bought; also called mouse CTLA-4.ECD-6×His; mouse CTLA-4 ECD
The experiment is described as above. As to the method:
as §4, §5

In experiment [7] the target is T3, human CTLA-4.ECD-6×His. Described as above. Here is the method:
as §4, §5

Experiment [8] has as its target T7, biotinylated human CTLA-4 (Example 3 FACS competition) (human, UniProt P16410 36-161, limits assumed, biotinylated (sites not given)).
T7 sequence (looked up): T2 sequence (looked up)
The experiment in a line: competition FACS: antibody mixed with biotinylated human CTLA-4, added to CD86-expressing cells (panel title W316-CHO-K1.hPro1.L2), bound CTLA-4 detected with streptavidin-PE [B]. As to the method: as §3
Then the mixtures of antibody and CTLA-4 were added to the cells and incubated for 1 hour at 4° C. The cells were washed two times with 200 μL FACS buffer (DPBS containing 1% BSA). Streptavidin PE 1 to 333 diluted in FACS buffer was added to the cells and incubated at 4° C. for 1 hour.

Experiment [9] concerns the target T8, monkey CTLA-4 (Example 3 ELISA, construct not stated) (cynomolgus monkey, UniProt G7PL88 36-161).
T8 construct: also called cyno CTLA-4
T8 sequence: T2 sequence (looked up) with S14N, I18T, L106M
The experiment in a line: ELISA, antibody titrated on cyno CTLA-4, OD450. As to the method: as §1, §2
For orientation: ELISA stands for enzyme-linked immunosorbent assay.

The target in experiment [10] is T2, human CTLA-4 (Example 3 ELISAs, …). The experiment in a line: competition ELISA: coated human CTLA-4, antibody mixed with biotinylated CD80, bound ligand detected with streptavidin-HRP [A) CD80]. Here is the method:
as §3

Changes are numbered by the printed parent chain.

B1: W3162-1.146.19 xAb.IgG1 (antibody, V domains shown)
VH: EVQLQESGPGLVKPSQSLSLTCSVTYHTITSGYDWTWIRKFPGNQMEWMGYISYSGNTNYNPSLKSRISITRDTSKNQFFLHLNSVTSEDTATYYCASMMVPHYYVMDAWGQGASVTVSS
VL: DVVLTQTPPTSSATIGQSVSISCRSSQSLLNSDGNTYLYWYLQRPSQSPQLLIYLVSKLGSGVPNRFSGSGSGTDFTLKISGVEAEDLGLYYCVQGTHDPWTFGGGTKLELK
notes: Chimeric: rat variable regions fused with constant region of human antibody (label xAb.IgG1)
Turning to B1, the EC50 (commonly the midpoint of the concentration-response curve) in experiment [1] was 0.01 nM; in experiment [5] it was 3.25 nM. Also, the EC50 (read off the curve) (commonly the concentration needed to bring the measured effect to its halfway point) in experiment [2] was around 0.04 nM; in experiment [9], around 0.1 nM. For the same molecule, the results for the “IC50 (read off the curve)” value in experiment [3], in [8] and in experiment [10] were around 0.8 nM, around 1 nM and around 0.7 nM, respectively. In addition, the Kd (as a rule, the concentration at which binding is half-saturated) with human CTLA-4.ECD-6×His [4] was found to be 0.208 nM; in experiment [6], 0.369 nM; with Murine CTLA-4.ECD-6×His it was 0.906 nM; in the experiment with human CTLA-4.ECD-6×His [7], 0.208 nM. The koff (as a rule, the rate constant with which the complex falls apart) in the experiment with human CTLA-4.ECD-6×His [4] came to 0.000148 s⁻¹; in experiment [6] it was 0.000107 s⁻¹; in the experiment with Murine CTLA-4.ECD-6×His it was 0.000228 s⁻¹; in the experiment with human CTLA-4.ECD-6×His [7], 0.000148 s⁻¹. Also, the kon (commonly the rate constant with which the complex forms) with human CTLA-4.ECD-6×His [4] stood at 709000 M⁻¹ s⁻¹; in experiment [6], 291000 M⁻¹ s⁻¹; with Murine CTLA-4.ECD-6×His, 251000 M⁻¹ s⁻¹; with human CTLA-4.ECD-6×His [7] it was 709000 M⁻¹ s⁻¹.
